Residue numbers refer to the chain shown, from its start. Numbers in names are those of the source.
B1: Lip-VIN3VEL (residues 500-603), wild type (domain or fragment)
chain: GKQGGNKRFKSRTVSLNEKPEINNAANGVGDKDLGHIVKTIRCLEEEGHIDKSFRERFLTWYSLRATHREVRVVKIFVETFMEDLSSLGQQLVDTFSESILSKR
B2: Lip-VIN3VEL (residues 500-603) I575T (domain or fragment)
chain: B1 chain with I76T

Target: the molecule itself
Assay: SEC-MALS

Protein | binding result
B1 | binds
B2 | binds
